Experimental data taken from publication PMC6893399.

Legend:
[1] = open-field test; settings: glycan lost; control: wild-type littermates
[2] = maximum speed, NOR test phase; settings: glycan lost; control: wild-type littermates
[3] = distance travelled, NOR test phase; settings: glycan lost; control: wild-type littermates
[4] = histology, four points along cortex; settings: glycan lost; control: wild-type littermates
[5] = total CRMP2 western blot, brain lysate; settings: glycan lost; control: wild-type mice
[6] = histology, lateral and third ventricles; settings: glycan lost; control: wild-type littermates
[7] = spontaneous alternation, enclosed plus maze; settings: glycan lost; control: wild-type littermates
[8] = P509/514-CRMP2 antibody western blot, brain lysate; settings: glycan lost; control: wild-type mice
[9] = 3F4 (P509/514/518/522) antibody western blot, brain lysate; settings: glycan lost; control: wild-type mice

Substance: CRMP2: Crmp2S517A
- other: anxiety and locomotor activity [1]: no change
- other: locomotion during NOR test phase, other: speed [2]: decreases, 0.124 ± 0.017 vs 0.145 ± 0.027
- other: locomotion during NOR test phase, other: distance [3]: decreases, 9.4 ± 2.0 vs 12.8 ± 3.4
- other: cortical thickness, other: thickness [4]: no change, 1127 ± 93.24 vs 1197 ± 175.4
- expression_or_secretion [5]: no change
- other: brain ventricular volume, other: volume [6]: no change, 4.160 ± 1.252 vs 3.592 ± 1.155
- other: spatial working memory [7]: no change
- other: CRMP2 phosphorylation at GSK3β sites [8]: no change
- other: CRMP2 phosphorylation at GSK3β sites [9]: no change
